Reference: patent US20190177366

Columns and labels:
[1] = system: T1, Compound 26
T1 sequence: SGCFIPWNLQRIGLLC

[2] = system: T2, Pep2-8-ctrl
T2 sequence: TVATSAEEYLLWV

[3] = system: T3, Pep2-8
T3 sequence: TVFTSWEEYLDWV

[4] = system: T4, Compound 118
T4 sequence: WNLVXIGLTR

[5] = system: T5, Compound 29
T5 sequence: SGCFIPWNLQRIGLLC

PCSK9-R167A:R215A:R218A
FXIa cleavage of the P′ helix (immunoblot) [1]: both groove binding peptides accelerated the cleavage reaction, leading to almost complete cleavage of the P′ helix
FXIa cleavage of the P′ helix (immunoblot) [2]: The control peptide did not inhibit cleavage and gave similar results as the buffer control
FXIa cleavage of the P′ helix (immunoblot) [3]: both reagents largely prevented cleavage of the P′ helix by FXIa
FXIa cleavage of the P′ helix (immunoblot) [4]: resulted in a higher degree of P′ helix cleavage by FXIa as compared to the peptide Compound 112
FXIa cleavage of the P′ helix (immunoblot) [5]: both groove binding peptides accelerated the cleavage reaction, leading to almost complete cleavage of the P′ helix
